Biological target: T1, GST-14-3-3ζ (Drosophila melanogaster (Fruit fly), UniProt P29310)
T1 chain: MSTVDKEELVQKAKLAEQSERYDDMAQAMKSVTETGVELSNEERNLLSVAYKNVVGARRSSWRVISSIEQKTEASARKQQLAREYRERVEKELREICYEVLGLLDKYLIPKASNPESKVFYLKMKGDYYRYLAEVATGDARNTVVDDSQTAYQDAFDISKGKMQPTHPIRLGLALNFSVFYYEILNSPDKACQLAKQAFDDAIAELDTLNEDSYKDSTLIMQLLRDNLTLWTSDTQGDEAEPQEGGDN
Assay: GST pull-down

binding result: binds
B1: MBP-Tctp (protein)
chain: MKIYKDIITGDEMFADTYKMKLVDDVIYEVYGKLITRQGDDIKLEGANASAEEADEGTDITSESGVDVVLNHRLTECFAFGDKKSYTLYLKDYMKKVLAKLEEKSPDQVDIFKTNMNKAMKDILGRFKELQFFTGESMDCDGMVALVEYREINGDSVPVLMFFKHGLEEEKC
